Publication PMC3035459 (Nucleic Acids Research, 2010)

Biological target: the molecule itself
Experiment: crystal structure

B1: Methanocaldococcus jannaschii O-phosphoseryl-tRNA kinase (enzyme, UniProt Q58933 1-248, looked up)
chain: MLIILTGLPGVGKSTFSKNLAKILSKNNIDVIVLGSDLIRESFPVWKEKYEEFIKKSTYRLIDSALKNYWVIVDDTNYYNSMRRDLINIAKKYNKNYAIIYLKASLDVLIRRNIERGEKIPNEVIKKMYEKFDEPGKKYKWDEPFLIIDTTKDIDFNEIAKKLIEKSKEIPKFYVLEENKNKNNNISDKIDKETRKIVSEYIKSKKLDKDKIKEVVELRKEFLKKIKKMEEVDADRVLKEFKDLLNSY
- stoichiometry N: 2
